Here are results for five molecules from PMC4742702 (mBio, 2016).

The target of assay [1] is BppUct (C-terminal portion of Tuc2009 BppU, residues 194 to 322) (Lactococcus phage Tuc2009). Kind of assay: crystal structure.
Assay [2] concerns the target Tuc2009 BppL (RBP) as in the tripod (Lactococcus phage Tuc2009). As to the kind of experiment: crystal structure.
The target of assay [3] is serendipitously cleaved BppL head domain (residues 52 to 173) in the tripod crystal (Lactococcus phage Tuc2009). Kind of assay: crystal structure.
In assay [4] the target is trypsin-cleaved Tuc2009 RBP head domain (in the nano-L06 complex) (Lactococcus phage Tuc2009). As to the kind of experiment: crystal structure.
The target of assay [5] is T1, Tuc2009 tripod BppUctAL complex (BppUct/BppA/BppL) (Lactococcus phage Tuc2009).
T1 chain 1: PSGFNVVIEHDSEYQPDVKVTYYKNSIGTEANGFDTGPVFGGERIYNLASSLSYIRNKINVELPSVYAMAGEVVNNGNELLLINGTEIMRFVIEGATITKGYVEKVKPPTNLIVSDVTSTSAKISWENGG
T1 chain 2: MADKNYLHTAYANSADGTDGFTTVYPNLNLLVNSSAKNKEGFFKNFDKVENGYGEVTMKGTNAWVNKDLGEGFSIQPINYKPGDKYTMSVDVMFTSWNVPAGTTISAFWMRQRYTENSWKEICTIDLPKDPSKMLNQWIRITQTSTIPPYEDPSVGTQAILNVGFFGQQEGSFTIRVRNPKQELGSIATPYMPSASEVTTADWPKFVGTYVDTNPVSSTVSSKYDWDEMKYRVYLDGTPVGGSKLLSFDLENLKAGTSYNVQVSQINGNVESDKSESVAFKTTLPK
T1 chain 3: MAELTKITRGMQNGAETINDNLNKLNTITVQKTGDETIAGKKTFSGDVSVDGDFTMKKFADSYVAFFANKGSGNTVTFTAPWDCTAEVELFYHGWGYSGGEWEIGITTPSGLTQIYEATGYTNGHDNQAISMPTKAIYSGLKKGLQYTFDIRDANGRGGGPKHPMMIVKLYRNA
Kind of assay: BLI.

The target in assay [6] is T2, phage Tuc2009 receptor binding protein (RBP, BppL, ORF53) (Lactococcus phage Tuc2009).
T2 chain: T1 chain 3
Kind of assay: BLI.

Regarding “BppUct (C-terminal portion of Tuc2009 BppU, residues 194 to 322) (domain or fragment)”, in assay [1], the stoichiometry N came out at 3.
Take “Tuc2009 BppL (RBP) as in the tripod (natural protein)”: the stoichiometry N in assay [2] was 3.
In assay [3], “serendipitously cleaved BppL head domain (residues 52 to 173) in the tripod crystal (domain or fragment)” registered a stoichiometry N of 3.
“trypsin-cleaved Tuc2009 RBP head domain (in the nano-L06 complex) (domain or fragment)” returned a stoichiometry N in assay [4] of 3.

B1: nanobody nano-L06 (VHH)
VHH: QVQLVESGGGSVQAGGSLRLSCTASGFTFDDSDMGWYHQAPGNECELVSAIFSDGSTYYADSVKGRFTISRDNAKNTVYLQMNSLKPEDTAMYYCAAATTTVASPPVRHVCNGYWGQGTQVTVSS
B1: the Kd in assay [5] amounted to 9.1 ± 0.6 nM; in assay [6], 9.1 ± 0.7 nM.
